± gives the uncertainty stated by the source.
Assay: amyloid nucleation score (Sup35N fusion, yeast selection) (log enrichment); library NNK2; higher = more nucleation; inactive = no reads after selection
In short: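 Nucleation score is defined as the DiMSum log enrichment of output over input reads, with centring on the mode score of non-aggregating sequences. A minimum of 100 input reads was required for each sequence. Reads came from Illumina sequencing of plasmid inserts from psi-negative yeast expressing Sup35N fused to peptides of 20 random codons, induced with 100 μM copper sulfate for 24 hours and grown 7 days at 30°C on medium lacking adenine and uracil.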

| Substance | amyloid nucleation score |
| --- | --- |
| MYIRYPFATPYWSFLLGKVT | -0.117 ± 0.35 |
| AFICMFVIRFDWYNMS | -0.558 ± 1 |
| LAGIRCVIDRLMLCRVDAIK | -0.656 ± 0.28 |
| TCQLMMCNFVFCCKMTSTLK | 8.252 ± 0.047 |
| GCISVNCHSLLRTHAFRG | 1.28 ± 0.1 |
| CAPFVRDFINMVCRRMPNTN | 0.566 ± 0.66 |
| CDSVLPRLLNYKYTKNK | 0.14 ± 0.63 |
| LDYSNFNTRKFAKDEGDMRR | 8.371 ± 0.049 |
| MLLHMWCWIGPGKYLSVTKF | inactive |
| HYCSVRMWLTTKEADPRTSL | 0.739 ± 0.31 |
| DARKNVDRSPSSLSEKVLSL | 0.642 ± 0.34 |
| ISPISEQHMLSLTSYEP | 1.74 ± 0.35 |
| DFMSSVFCQAVWVHAPRRVR | 0.6 ± 0.74 |
| NYKNVVSFLVR | inactive |
| IFRCRYTSGRFNAALSCC | -1.44 ± 0.49 |
| RFPVGRLFWQEFRYSDQGVA | 1.17 ± 0.23 |
| YRPITRMCSWDRNSLWWSRY | -0.582 ± 0.54 |
| GDQIWNYGSLAETVTASTWS | 0.509 ± 0.21 |
| YCGLFKGYVYRL | -1.43 ± 0.55 |
| INMTLELDSVRRNLLYAGGG | -0.142 ± 0.55 |
| VDSYHGYTDRNALSFLCSLV | 0.342 ± 0.23 |
| MVMTYLWARGCCMKLGVQFG | 0.396 ± 0.66 |
| IIKECEWNCIVTSDIAYVRW | 5.481 ± 0.052 |
| ADGFVSSIVLT | 0.006 ± 0.24 |
| VDNSLVNMLTAMGWSGFMHT | 0.255 ± 0.49 |

| Substance | amyloid nucleation score |
| --- | --- |
| PRSQYRITYDYVCCRVMYKY | 0.392 ± 0.46 |
| VFFFKRLYTKVCF | inactive |
| VDFCVDVLFC | -1.06 ± 1.1 |
| YRLYDRENSAICYISYTLLL | 2.36 ± 0.069 |
| MHCYSIGFRLMRSANMLSCY | 0.394 ± 0.33 |
| MKFKYTNHVYRIDCRSAT | 0.551 ± 0.38 |
| QKFVLSRPDLDRFYCSMDCM | -0.185 ± 0.63 |
| SKEVAAGCSLGIRVVMFKR | inactive |
| LNVITSVTLRVDWRAVWRKY | 0.134 ± 0.53 |
| SIFHGWARWKGFG | -0.258 ± 0.48 |
| GCDVDKVNGRRVVYPDTEGL | 0.697 ± 0.81 |
| NCNRYRMRTKFRRSYMGSVR | 0.157 ± 0.28 |
| YCFSVYKGVGIGKKCGYLSS | inactive |
| FGSVEVVRRIRSFWLFESPR | 3.58 ± 0.14 |
| NCYFKLSYEDMIRQCKRLNE | 3.44 ± 0.069 |
| VIYMNAGLYLRLKRRFDYVV | 0.72 ± 0.58 |
| YVKVVFCFDLAAMTSRRFYE | 0.228 ± 1 |
| LMKSIVGFMNESPLVIEFGR | -0.402 ± 0.27 |
| VWLCCLCWVQMDLANVNLWL | 8.315 ± 0.053 |
| FNLLEVTRPPMRMMGMM | 2.3 ± 0.076 |
| NVGYWYCLD | 8.808 ± 0.033 |
| FIKRAHVERFSLPKTPWSVD | -1.3 ± 1 |
| VARFILHCY | -0.492 ± 0.28 |
| IFDAFWYTVTVRDNDG | 1.76 ± 0.17 |
| CMPMISRVLGCDNSYYMSSA | 0.029 ± 0.4 |

| Substance | amyloid nucleation score |
| --- | --- |
| ANGSKGLVLTLNGDSKCVEC | 0.188 ± 0.25 |
| FYQFLNSNGKYTGVYGAAPR | -1.01 ± 0.41 |
| LRMYCRVTWSISYVSSSPVL | 2.83 ± 0.087 |
| TSGMYMCFLMLLVFCQLLNG | -1.21 ± 0.44 |
| LVCGHRPNVAAGTQGDCGRW | 1.04 ± 0.32 |
| NARCMCWSGINLVTWYLLKE | 7.145 ± 0.04 |
| SCDIKCWCQ | 3.41 ± 0.079 |
| HGGSVWRRHSVFNAICISSS | 1.11 ± 0.18 |
| PGHNQKERLLQLRSI | inactive |
| VCIMSRYKLQLLKNSNGITH | 2.53 ± 0.16 |
| YNFRSSLRNGYKEVRGVQYG | 5.221 ± 0.043 |
| WEYTG | 0.242 ± 0.74 |
| HGVMKISTCYFGGKESYYVE | -0.206 ± 0.76 |
| VVYTRIEVILSGDLSPREMV | 0.763 ± 0.24 |
| FLICGHCWGPNTYYNTSVLM | 7.8 ± 0.061 |
| SSPLPQSCERNRVLRTRLGF | 0.874 ± 0.45 |
| SIKVRMGEARVMNLVNTLGV | inactive |
| MFMANGSWTYEEVIE | 1.47 ± 0.16 |
| FPLRCFTIFSMRASNF | 0.615 ± 0.66 |
| AALGTDMSNWVHSRLNQERR | 0.433 ± 0.45 |
| FLACQYNCLVDSMG | 3.26 ± 0.051 |
| FFCSSRPDE | -0.286 ± 0.8 |
| RGYACCL | -0.574 ± 0.48 |
| RKTLVGDNLNEGVKSWGWSR | -1.29 ± 0.45 |
| LRVRGRFLNSWSASPRSSDY | 3.58 ± 0.053 |

| Substance | amyloid nucleation score |
| --- | --- |
| NLVFSTRIHKFFLNRGEG | 5.15 ± 0.058 |
| DQCPFFSVWWSSLDYSWM | -0.094 ± 1 |
| VFNSTFANLW | 2.6 ± 0.092 |
| RLSFQSCCLPFVYWNWW | 7.738 ± 0.048 |
| DIKYCRSFCWLSTIFRTLGP | 0.249 ± 0.37 |
| RERMRY | 1.64 ± 0.18 |
| IYRLDHRACP | 1.03 ± 0.38 |
| MVSLLNFRECMHY | inactive |
| LVKCHANGCFPYLSTIFIRP | 0.156 ± 0.41 |
| FDAMSSFLQYLLTHKMWVGD | 0.799 ± 0.43 |
| FSVCHVQDCSSAGRMYYLRL | 3.98 ± 0.055 |
| WWSSDS | 1.73 ± 0.078 |
| RLFYGCITGIVVSSILGVCM | 2.47 ± 0.21 |
| YLGRHDYKSVGGSFIPRQSK | -0.661 ± 1.1 |
| DDMTGDHRPSFRSMIMVGVI | 0.918 ± 0.67 |
| IRTDSTNMCF | -0.647 ± 1.1 |
| NILLIPMRGFSRFRSVMVIP | -0.202 ± 1.1 |
| HISLVSCHEM | -0.213 ± 1.1 |
| YSERSTEGQ | 0.698 ± 0.26 |
| GIKFCEPCDGGHGDGIWPLT | 0.708 ± 0.29 |
| LIFFCLFEYRLRLHCNRRDH | -1.34 ± 0.49 |
| WSEHQGQPNRERWWSAAGEG | 0.984 ± 0.32 |
| VFTSGSRCHPWLE | 1.45 ± 0.27 |
| DRSSS | 0.447 ± 0.31 |
| TGCWVEERTRLRLRIYDLLY | 0.004 ± 1.1 |

| Substance | amyloid nucleation score |
| --- | --- |
| IVCTYFHSTPSCYRLASNWY | 0.284 ± 1.1 |
| RALRVRILYCEARRMCFMAN | 0.236 ± 1.1 |
| KACWCLYQGLTLSAQVQLWP | 1.26 ± 0.26 |
| RSIWMKLCMWIECSDKETRF | 4.17 ± 0.13 |
| IISENAYCLPMIMT | -0.437 ± 0.54 |
| ALFVYYDIQVVGITY | -1.1 ± 0.4 |
| IEPSHFNGNSASWV | -0.184 ± 0.63 |
| CGLNCVAGGREEDRVYVLSS | 0.088 ± 0.22 |
| RGFVLETLWSMTIVVQKFNL | inactive |
| LCGTLLIMKRVMSGYNLQAK | -0.37 ± 0.26 |
| DQLVLELHWTESILSYVVMP | 0.816 ± 0.48 |
| RLRYM | -0.631 ± 0.76 |
| SIAWRLEFIVDDGVLFRCKS | -0.563 ± 0.35 |
| ESRIYYVKQYSCLSTLTMVR | -0.283 ± 0.35 |
| FSWSYDVDIT | inactive |
| RGTAIKILYL | 5.46 ± 0.069 |
| AIYLWSF | 4.85 ± 0.054 |
| DFNSCRLTVHLRYTSVPCRY | 0.233 ± 0.74 |
| HIILIEGSMVCQTLVRGDLV | 5.514 ± 0.042 |
| LMAHTSFVDFGVKN | -0.266 ± 0.23 |
| LAMTAAKIMDRFNGCSLKSF | 0.648 ± 0.74 |
| WAWVYGCDGYLIGSSRLANG | 0.368 ± 0.25 |
| DPQRVFFWLPYMNLYQHEPF | 0.025 ± 1.1 |
| GMKSIDVL | -1.21 ± 0.36 |
| YWLSRSWHWKKLFGGWFALL | 0.016 ± 0.54 |

| Substance | amyloid nucleation score |
| --- | --- |
| ELPMLGFVCNYSKHQLFIFY | 5.04 ± 0.1 |
| HVSFLIDRNTMRGLMASSNN | inactive |
| NPSFNESFLSGSQKVQILMG | -0.509 ± 1.1 |
| TYADW | 0.902 ± 0.3 |
| FDTRITMMCALWTFPAT | 7.15 ± 0.079 |
| VICNLDCLEVEGGILDQ | -1.04 ± 1.1 |
| MVYRSDAGCSPVVTKK | 0.259 ± 0.5 |
| NTVHWSDSCRLFPHRDQQCF | -0.694 ± 0.61 |
| YWKGNTRIGQVLFYTLSCKT | 0.389 ± 0.8 |
| SGEGRLLVRWALVKVTEEKL | 0.907 ± 0.58 |
| YCTNFYVEAGAIGS | -0.682 ± 0.42 |
| IRSLMSR | 2.32 ± 0.061 |
| MFERW | -0.184 ± 0.56 |
| SPWVNYYPSRVYRNVNACLF | -0.339 ± 0.35 |
| HKLLCGYTQSQHQRIGFQEF | -0.733 ± 1.1 |
| IYACGYGLFYEYHTCSMCEI | -0.977 ± 0.34 |
| IDMYRRQYDQSQIKCNFSS | -0.087 ± 0.45 |
| VDNNVGSWPLWP | -0.08 ± 1 |
| KVGKDTVYKGQSIQSVYLRC | -0.41 ± 0.49 |
| LDVYQ | -0.711 ± 0.64 |
| CANFRSGYGA | -0.241 ± 0.35 |
| GIFYSRL | -0.089 ± 0.61 |
| IIRVSSCPCTNI | inactive |
| VVRPVTLRFCTKGGMYSSVG | 0.407 ± 0.32 |
| RANGSSYEREVA | 0.819 ± 0.47 |

| Substance | amyloid nucleation score |
| --- | --- |
| RWATAKRI | 0.194 ± 0.49 |
| PDHKLARTIYWAPCTMDWVI | -0.057 ± 0.61 |
| APVMYVT | 0.057 ± 0.48 |
| SRIGLYIKCVVLDWRELNLS | 0.206 ± 0.55 |
| VVDGYYGFWVVSQEDISIYP | -0.094 ± 0.54 |
| NMMCISSHGSTTSGFLRSSL | 3.52 ± 0.062 |
| MCMLTLRLNQLYMAIMHG | 0.603 ± 0.36 |
| TFWGTTY | inactive |
| FSYRCFINTSQFYSAIKIFL | 0.691 ± 0.14 |
| RKLIFVMTRRLGRSSRTVLM | 0.112 ± 1.1 |
| RVDKMMYSRLPCLVAV | 0.466 ± 0.49 |
| RATRLIRGTWYKKLKRVARI | 1.32 ± 0.18 |
| SWHVVQAVIDVVDREV | 0.967 ± 0.22 |
| QWVVLVD | -0.016 ± 0.65 |
| TLQCDVNTVLILHVYTTYKS | 1.13 ± 0.24 |
| VGPPEIWVEFFAV | -0.813 ± 1.1 |
| FSIYYRGPRQVSTYRDLIPV | -0.429 ± 0.37 |
| SVNMFKFRTDSSFCDLTLCH | 0.423 ± 0.8 |
| KFYYVTGDATLNRDLWGSRA | -0.79 ± 0.34 |
| LFLTACER | 6.721 ± 0.043 |
| YMYFRVFDS | 0.525 ± 0.34 |
